Results from patent publication US20190338048A1.
Where two headings read alike, the source gives them in different places. Each block holds one substance with its values, some of them ahead of it.

Legend:
[1] = target: Recombinant human IL-17A (human) (UniProt Q16552); assay: SPR, IL-17A immobilised, purified Fab injected
[2] = target: Recombinant human IL-17A (human) (UniProt Q16552); assay: SPR
[3] = target: CR8071 lambda light chain L1 with S176K_Y178K; assay: SMCA System C: four chains co-expressed, protein A, LC-MS
[4] = target: CR8071 lambda light chain L1 with S176K_Y178K; assay: as above; remark: listed apart in the source
[5] = target: CR8071 lambda light chain L1 with S176E_Y178E; assay: as above
[6] = target: CR8071 lambda light chain E124Q_T131R (L1 of design 3025, system C); assay: SMCA LC-MS
[7] = target: CR8071 lambda light chain K129T_S180E (L1 of design 3878, system C); assay: SMCA LC-MS
[8] = target: CR8071 lambda light chain V133D_Y178T (L1 of designs 3113 and 3122, system C); assay: SMCA LC-MS
[9] = target: CR8071 lambda light chain V133D_Y178T (L1 of designs 3113 and 3122, system C); assay: SMCA LC-MS; remark: listed apart in the source
[10] = target: Design 3890 L1: CR8071 lambda light chain S122D_K129T_S180E; assay: SMCA: H1, L1, H2, L2 co-expressed, protein A, LC-MS
[11] = target: Design 3890 L2: SGN-CD19a kappa light chain S121K_Q124R_T178R; assay: as above
[12] = target: Design 3898 L1: CR8071 lambda light chain K129T_Y178E_S180E; assay: as above
[13] = target: Design 3898 L2: SGN-CD19a kappa light chain Q124R_T178R; assay: as above
[14] = target: Design 3898 L2: SGN-CD19a kappa light chain Q124R_T178R; assay: as above; remark: listed apart in the source
[15] = target: Pertuzumab kappa light chain V133G_S176D_T180E (L2), N-terminal HA tag; assay: LCCA, SPR of light chain tags
[16] = target: CAT-2200 lambda light chain S176K_Y178L (L1), N-terminal FLAG tag; assay: LCCA, SPR of light chain tags
[17] = target: Pertuzumab kappa light chain V133G_S176D_T180E (L2), N-terminal HA tag; assay: LCCA, SPR of light chain tags; remark: listed apart in the source
[18] = target: CAT-2200 lambda light chain S176K_Y178R (L1), N-terminal FLAG tag; assay: LCCA, SPR of light chain tags
[19] = target: Pertuzumab kappa light chain V133G_S176D_T180E (L2), N-terminal HA tag; assay: LCCA, SPR of light chain tags; remark: listed apart in the source
[20] = target: Pertuzumab kappa light chain V133G_S176D_T180E (L2), N-terminal HA tag; assay: LCCA, SPR of light chain tags; remark: listed apart in the source
[21] = target: CAT-2200 lambda light chain S176K_Y178K (L1), N-terminal FLAG tag; assay: LCCA, SPR of light chain tags
[22] = target: SGN-CD19a kappa light chain L2 with S131R_V133G_S176R; assay: SMCA System C: four chains co-expressed, protein A, LC-MS
[23] = target: SGN-CD19a kappa light chain L2 with S131R_V133G_S176R; assay: SMCA System B: four chains co-expressed, protein A, LC-MS
[24] = target: SGN-CD19a kappa light chain L2 with V133G_S176D; assay: SMCA System C: four chains co-expressed, protein A, LC-MS
[25] = target: SGN-CD19a kappa light chain L2 with V133G_S176D; assay: SMCA System B: four chains co-expressed, protein A, LC-MS
[26] = target: SGN-CD19a kappa light chain L2 with V133G_S176D_T178E; assay: SMCA System C: four chains co-expressed, protein A, LC-MS
[27] = target: SGN-CD19a kappa light chain L2 with V133G_S176D_T178E; assay: SMCA System B: four chains co-expressed, protein A, LC-MS
[28] = target: SGN-CD19a kappa light chain L2 with V133G_S176D_T180E; assay: SMCA System C: four chains co-expressed, protein A, LC-MS
[29] = target: SGN-CD19a kappa light chain L2 with V133G_S176D_T180E; assay: SMCA System B: four chains co-expressed, protein A, LC-MS
[30] = target: SGN-CD19a kappa light chain L2 with Q124E_V133D; assay: SMCA System C: four chains co-expressed, protein A, LC-MS
[31] = target: SGN-CD19a kappa light chain L2 with Q124E_V133D; assay: SMCA System B: four chains co-expressed, protein A, LC-MS
[32] = target: SGN-CD19a kappa light chain S176K_T178K (L2 of design 3122, systems B and C); assay: SMCA LC-MS
[33] = target: SGN-CD19a kappa light chain S176K_T178K (L2 of design 3122, systems B and C); assay: SMCA LC-MS; remark: listed apart in the source
[34] = target: SGN-CD19a kappa light chain S131R_V133G_S176R (L2 of designs 3102 and 3113, systems B and C); assay: SMCA LC-MS
[35] = target: SGN-CD19a kappa light chain S131R_V133G_S176R (L2 of designs 3102 and 3113, systems B and C); assay: SMCA LC-MS; remark: listed apart in the source
[36] = target: SGN-CD19a kappa light chain S131R_V133G_S176R (L2 of designs 3102 and 3113, systems B and C); assay: SMCA LC-MS; remark: listed apart in the source
[37] = target: SGN-CD19a kappa light chain S131R_V133G_S176R (L2 of designs 3102 and 3113, systems B and C); assay: SMCA LC-MS; remark: listed apart in the source
[38] = target: SGN-CD19a kappa light chain S121K_Q124R_T178R (L2 of design 3890, system B); assay: SMCA LC-MS
[39] = target: SGN-CD19a kappa light chain Q124R_Q160K_T178R (L2 of design 3878, systems B and C); assay: SMCA LC-MS
[40] = target: SGN-CD19a kappa light chain Q124R_Q160K_T178R (L2 of design 3878, systems B and C); assay: SMCA LC-MS; remark: listed apart in the source
[41] = target: SGN-CD19a kappa light chain S131D_V133G_T178F (L2 of design 3025, systems B and C); assay: SMCA LC-MS
[42] = target: SGN-CD19a kappa light chain S131D_V133G_T178F (L2 of design 3025, systems B and C); assay: SMCA LC-MS; remark: listed apart in the source

Recombinant human IL-17A (human), sequence (Q16552 20-155 limits assumed): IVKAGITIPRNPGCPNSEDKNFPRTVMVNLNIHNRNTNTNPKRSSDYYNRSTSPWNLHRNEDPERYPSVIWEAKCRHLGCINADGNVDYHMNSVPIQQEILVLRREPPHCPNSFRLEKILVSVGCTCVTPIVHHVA

Substance: CAT-2200 Fab, H1 S186R / L1 K129T_S180E
Kd [1]: 260 pM
Change in KD of H1L1 Fab vs wild type (log(KD) units) [2]: -0.088

Substance: CR8071 heavy chain H1 with S188K
% H1L1 Pairing [5]: 94.5%
Change in % H1L1 Pairing with respect to wild type [5]: 12.2%

Substance: CR8071 heavy chain Q179K (H1 of design 3878, system C)
% H1L1 Pairing [7]: 99.3%
Change in % H1L1 Pairing with respect to wild type [7]: 17%

Substance: CR8071 heavy chain S186K_S188T (H1 of designs 3113 and 3122, system C)
% H1L1 Pairing [8]: 76.7%
Change in % H1L1 Pairing with respect to wild type [8]: -5.6%
% H1L1 Pairing [9]: 65.8%
Change in % H1L1 Pairing with respect to wild type [9]: -16.5%

Substance: Design 3890 H2: SGN-CD19a heavy chain L143E_K145T_K228D
% H2L2 Pairing [11]: 88.5%
Change in % H2L2 Pairing with respect to wild type [11]: 17.2%

Substance: Design 3898 H1: CR8071 heavy chain Q179K
% H1L1 Pairing [12]: 97.4%
Change in % H1L1 Pairing with respect to wild type [12]: 15.1%

Substance: Design 3898 H2: SGN-CD19a heavy chain L143E_K145T_Q179E
% H2L2 Pairing [13]: 74.5%
Change in % H2L2 Pairing with respect to wild type [13]: 36.9%
% H2L2 Pairing [14]: 95.2%
Change in % H2L2 Pairing with respect to wild type [14]: 35.3%

Substance: SGN-CD19a heavy chain H2 with L124R
% H2L2 Pairing [24]: 99.5%
Change in % H2L2 Pairing with respect to wild type [24]: 19.9%
% H2L2 Pairing [25]: 94.6%
Change in % H2L2 Pairing with respect to wild type [25]: 40.4%

Substance: SGN-CD19a heavy chain H2 with L124R_S186R
% H2L2 Pairing [28]: 99.5%
Change in % H2L2 Pairing with respect to wild type [28]: 28.2%
% H2L2 Pairing [29]: 98.6%
Change in % H2L2 Pairing with respect to wild type [29]: 44.4%

Substance: SGN-CD19a heavy chain L124E_K145T_Q179E (H2 of designs 3102 and 3113, systems B and C)
% H2L2 Pairing [34]: 99.6%
Change in % H2L2 Pairing with respect to wild type [34]: 39.7%
% H2L2 Pairing [35]: 92.8%
Change in % H2L2 Pairing with respect to wild type [35]: 55.2%
% H2L2 Pairing [36]: 99.8%
Change in % H2L2 Pairing with respect to wild type [36]: 39.9%
% H2L2 Pairing [37]: 90.9%
Change in % H2L2 Pairing with respect to wild type [37]: 53.3%

Substance: SGN-CD19a heavy chain S188K (H2 of design 3025, systems B and C)
% H2L2 Pairing [41]: 87.9%
Change in % H2L2 Pairing with respect to wild type [41]: 33.7%
% H2L2 Pairing [42]: 99.7%
Change in % H2L2 Pairing with respect to wild type [42]: 20.1%

Further lines, results first:

Kd [1]: 240 pM
Change in KD of H1L1 Fab vs wild type (log(KD) units) [2]: -0.056
Substance: CAT-2200 Fab, H1 Q179K / L1 K129T_S180E

% H1L1 Pairing [3]: 41.5%
Change in % H1L1 Pairing with respect to wild type [3]: -6.9%
% H1L1 Pairing [4]: 62.6%
Change in % H1L1 Pairing with respect to wild type [4]: 14.2%
Substance: CR8071 heavy chain H1 with K145T_V177D_S188D

% H1L1 Pairing [6]: 43.9%
Change in % H1L1 Pairing with respect to wild type [6]: -4.5%
Substance: CR8071 heavy chain L143D_K145T (H1 of design 3025, system C)

% H1L1 Pairing [10]: 98.4%
Change in % H1L1 Pairing with respect to wild type [10]: 30.3%
Substance: Design 3890 H1: CR8071 heavy chain A125R_Q179K

H2L2:H2L1 normalized median scalar value ln(r1/f1) [15]: 0.75
H2L2:H2L1 normalized median ratio [16]: 34%
H2L2:H2L1 normalized median scalar value ln(r1/f1) [17]: 0.63
H2L2:H2L1 normalized median ratio [18]: 31%
H2L2:H2L1 normalized median scalar value ln(r1/f1) [19]: 0.79
H2L2:H2L1 normalized median scalar value ln(r1/f1) [20]: 0.67
Substance: Pertuzumab Fab heavy chain L124R_Q179K (H2), ABD2-His6 tagged

H2L2:H2L1 normalized median scalar value ln(r1/f1) [15]: 1.06
H2L2:H2L1 normalized median ratio [16]: 27%
H2L2:H2L1 normalized median ratio [21]: 26%
H2L2:H2L1 normalized median scalar value ln(r1/f1) [17]: 1.21
H2L2:H2L1 normalized median scalar value ln(r1/f1) [19]: 1.17
H2L2:H2L1 normalized median scalar value ln(r1/f1) [20]: 0.98
Substance: Pertuzumab Fab heavy chain L124R_S186R (H2), ABD2-His6 tagged

% H2L2 Pairing [22]: 99.5%
Change in % H2L2 Pairing with respect to wild type [22]: 39.6%
% H2L2 Pairing [23]: 77.3%
Change in % H2L2 Pairing with respect to wild type [23]: 39.7%
Substance: SGN-CD19a heavy chain H2 with L124E_K145T_Q179E

% H2L2 Pairing [26]: 99.6%
Change in % H2L2 Pairing with respect to wild type [26]: 20%
% H2L2 Pairing [27]: 98.8%
Change in % H2L2 Pairing with respect to wild type [27]: 44.6%
Substance: SGN-CD19a heavy chain H2 with L124R_S186K

% H2L2 Pairing [30]: 99.6%
Change in % H2L2 Pairing with respect to wild type [30]: 20%
% H2L2 Pairing [31]: 94.3%
Change in % H2L2 Pairing with respect to wild type [31]: 40.1%
Substance: SGN-CD19a heavy chain H2 with L143K

% H2L2 Pairing [32]: 99.8%
Change in % H2L2 Pairing with respect to wild type [32]: 39.9%
% H2L2 Pairing [33]: 89.7%
Change in % H2L2 Pairing with respect to wild type [33]: 52.1%
Substance: SGN-CD19a heavy chain K145T_V177D_S188D (H2 of design 3122, systems B and C)

% H2L2 Pairing [38]: 51.3%
Change in % H2L2 Pairing with respect to wild type [38]: -2.9%
Substance: SGN-CD19a heavy chain L143E_K145T_K228D (H2 of design 3890, system B)

% H2L2 Pairing [39]: 28.7%
Change in % H2L2 Pairing with respect to wild type [39]: -8.9%
% H2L2 Pairing [40]: 67.4%
Change in % H2L2 Pairing with respect to wild type [40]: 7.5%
Substance: SGN-CD19a heavy chain L143E_K145T_S188L (H2 of design 3878, systems B and C)
